Data on one substance can be found in paper PMC5371648.

The assay deals with modern EF-Tu (elongation factor Tu) from E. coli (E. coli) (UniProt P0CE47). The assay can be described thus: ITC; Microcal ITC200; 0.6-1 mM NusA in the syringe titrated (2.5 uL injections, 120-s intervals) into 10 uM EF-Tu in the cell; Buffer C (20 mM Tris-HCl pH 7.5, 50 mM MgCl2, 100 mM KCl).

For the substance “wild-type NusA protein from E. coli (from UniProt P0AFF6 1-495) (natural protein)”, the Kd was 14.6 µM.
